Test results reported in paper PMC6548343 (Journal of Molecular Cell Biology, 2018).
Several values for one entry are separate records, joined by “and”; a condition that tells them apart may be missing. Equal values may be shown once.

Molecular target: the molecule itself
Experiment: EM classification and 3D reconstruction; INO80 sub-complexes and separated Rvb1/Rvb2 rings in the Mono Q fraction of the Ino80-2×FLAG purification

B1: Rvb1/Rvb2 (complex, S. cerevisiae)
chain 1: MVAISEVKENPGVNSSNSGAVTRTAAHTHIKGLGLDESGVAKRVEGGFVGQIEAREACGVIVDLIKAKKMSGRAILLAGGPSTGKTALALAISQELGPKVPFCPLVGSELYSVEVKKTETLMENFRRAIGLRIKETKEVYEGEVTELTPEDAENPLGGYGKTISHVIVGLKSAKGTKTLRLDPTIYESIQREKVSIGDVIYIEANTGAVKRVGRSDAYATEFDLETEEYVPLPKGEVHKKKEIVQDVTLHDLDVANARPQGGQDVISMMGQLLKPKKTEITEKLRQEVNKVVAKYIDQGVAELIPGVLFIDEVNMLDIEIFTYLNKALESNIAPVVVLASNRGMTTVRGTEDVISPHGVPPDLIDRLLIVRTLPYDKDEIRTIIERRATVERLQVESSALDLLATMGTETSLRYALQLLAPCGILAQTSNRKEIVVNDVNEAKLLFLDAKRSTKILETSANYL
chain 2: MSIQTSDPNETSDLKSLSLIAAHSHITGLGLDENLQPRPTSEGMVGQLQARRAAGVILKMVQNGTIAGRAVLVAGPPSTGKTALAMGVSQSLGKDVPFTAIAGSEIFSLELSKTEALTQAFRKSIGIKIKEETELIEGEVVEIQIDRSITGGHKQGKLTIKTTDMETIYELGNKMIDGLTKEKVLAGDVISIDKASGKITKLGRSFARSRDYDAMGADTRFVQCPEGELQKRKTVVHTVSLHEIDVINSRTQGFLALFTGDTGEIRSEVRDQINTKVAEWKEEGKAEIVPGVLFIDEVHMLDIECFSFINRALEDEFAPIVMMATNRGVSKTRGTNYKSPHGLPLDLLDRSIIITTKSYNEQEIKTILSIRAQEEEVELSSDALDLLTKTGVETSLRYSSNLISVAQQIAMKRKNNTVEVEDVKRAYLLFLDSARSVKYVQENESQYIDDQGNVQISIAKSADPDAMDTTE
notes: Rvb1, AAA+ ATPase subunit, S. cerevisiae; Rvb2, AAA+ ATPase subunit, S. cerevisiae; Seen as a hexameric ring in INO80 and as free hexamers and dodecamers; The fitted models PDB 2XSZ and 5OAF are of the human proteins; also called Rvb1/Rvb2 hexameric ring; Rvb1-Rvb2 ring; source: endogenous, S. cerevisiae, co-purified with tagged Ino80 (FLAG resin, Mono Q)
- stoichiometry N: 12 and 6
